Consider ten molecules from patent publication US20240101645A1 (HENRY M JACKSON FOUNDATION FOR THE ADVANCEMENT OF MILITARY …, published 2024).

The target of assay [1] is SARS-CoV-1 spike antigens (bead panel) (SARS-CoV-1, UniProt P59594 14-1195). Kind of assay: multiplex bead assay.
For assay [2], the target named is T1, HCoV-NL63 spike antigens (bead panel) (HCoV-NL63, UniProt Q6Q1S2 19-1296).
T1 sequence: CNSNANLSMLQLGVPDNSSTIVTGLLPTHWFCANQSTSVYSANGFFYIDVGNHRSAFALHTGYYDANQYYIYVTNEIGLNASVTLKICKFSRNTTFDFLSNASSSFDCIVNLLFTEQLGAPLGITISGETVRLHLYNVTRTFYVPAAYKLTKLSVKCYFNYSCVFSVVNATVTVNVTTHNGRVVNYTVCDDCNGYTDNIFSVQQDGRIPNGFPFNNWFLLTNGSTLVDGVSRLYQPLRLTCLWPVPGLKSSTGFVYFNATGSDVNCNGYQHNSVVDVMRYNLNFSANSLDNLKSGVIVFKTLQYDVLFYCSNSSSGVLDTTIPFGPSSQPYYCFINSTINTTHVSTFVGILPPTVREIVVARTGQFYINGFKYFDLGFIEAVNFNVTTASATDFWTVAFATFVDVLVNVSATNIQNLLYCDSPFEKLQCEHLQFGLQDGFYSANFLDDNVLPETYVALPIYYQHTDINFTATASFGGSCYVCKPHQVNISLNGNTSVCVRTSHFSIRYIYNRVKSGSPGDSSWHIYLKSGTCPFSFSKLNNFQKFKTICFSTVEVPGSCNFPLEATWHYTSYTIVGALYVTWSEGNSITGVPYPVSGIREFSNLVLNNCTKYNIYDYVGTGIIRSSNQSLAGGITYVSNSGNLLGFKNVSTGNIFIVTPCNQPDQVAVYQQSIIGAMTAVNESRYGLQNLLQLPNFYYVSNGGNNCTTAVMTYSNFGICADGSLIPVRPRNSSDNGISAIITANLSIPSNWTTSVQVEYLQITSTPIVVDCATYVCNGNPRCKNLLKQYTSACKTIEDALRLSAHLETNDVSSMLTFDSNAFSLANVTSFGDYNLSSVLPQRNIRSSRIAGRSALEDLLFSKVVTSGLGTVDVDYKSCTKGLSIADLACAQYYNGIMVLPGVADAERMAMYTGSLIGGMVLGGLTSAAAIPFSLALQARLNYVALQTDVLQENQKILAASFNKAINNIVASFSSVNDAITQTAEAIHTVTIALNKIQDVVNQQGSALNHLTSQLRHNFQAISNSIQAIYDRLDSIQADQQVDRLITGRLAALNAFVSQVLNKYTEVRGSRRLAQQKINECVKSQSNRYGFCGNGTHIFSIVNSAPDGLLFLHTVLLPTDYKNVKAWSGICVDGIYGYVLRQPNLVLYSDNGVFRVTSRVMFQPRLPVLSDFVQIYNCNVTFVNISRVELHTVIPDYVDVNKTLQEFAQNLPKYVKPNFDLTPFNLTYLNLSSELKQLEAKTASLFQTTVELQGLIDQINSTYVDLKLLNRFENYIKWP
The assay can be described thus: multiplex bead assay.

Assay [3] concerns the target T2, HCoV-OC43 spike antigens (bead panel) (HCoV-OC43, UniProt P36334 14-1297).
T2 sequence: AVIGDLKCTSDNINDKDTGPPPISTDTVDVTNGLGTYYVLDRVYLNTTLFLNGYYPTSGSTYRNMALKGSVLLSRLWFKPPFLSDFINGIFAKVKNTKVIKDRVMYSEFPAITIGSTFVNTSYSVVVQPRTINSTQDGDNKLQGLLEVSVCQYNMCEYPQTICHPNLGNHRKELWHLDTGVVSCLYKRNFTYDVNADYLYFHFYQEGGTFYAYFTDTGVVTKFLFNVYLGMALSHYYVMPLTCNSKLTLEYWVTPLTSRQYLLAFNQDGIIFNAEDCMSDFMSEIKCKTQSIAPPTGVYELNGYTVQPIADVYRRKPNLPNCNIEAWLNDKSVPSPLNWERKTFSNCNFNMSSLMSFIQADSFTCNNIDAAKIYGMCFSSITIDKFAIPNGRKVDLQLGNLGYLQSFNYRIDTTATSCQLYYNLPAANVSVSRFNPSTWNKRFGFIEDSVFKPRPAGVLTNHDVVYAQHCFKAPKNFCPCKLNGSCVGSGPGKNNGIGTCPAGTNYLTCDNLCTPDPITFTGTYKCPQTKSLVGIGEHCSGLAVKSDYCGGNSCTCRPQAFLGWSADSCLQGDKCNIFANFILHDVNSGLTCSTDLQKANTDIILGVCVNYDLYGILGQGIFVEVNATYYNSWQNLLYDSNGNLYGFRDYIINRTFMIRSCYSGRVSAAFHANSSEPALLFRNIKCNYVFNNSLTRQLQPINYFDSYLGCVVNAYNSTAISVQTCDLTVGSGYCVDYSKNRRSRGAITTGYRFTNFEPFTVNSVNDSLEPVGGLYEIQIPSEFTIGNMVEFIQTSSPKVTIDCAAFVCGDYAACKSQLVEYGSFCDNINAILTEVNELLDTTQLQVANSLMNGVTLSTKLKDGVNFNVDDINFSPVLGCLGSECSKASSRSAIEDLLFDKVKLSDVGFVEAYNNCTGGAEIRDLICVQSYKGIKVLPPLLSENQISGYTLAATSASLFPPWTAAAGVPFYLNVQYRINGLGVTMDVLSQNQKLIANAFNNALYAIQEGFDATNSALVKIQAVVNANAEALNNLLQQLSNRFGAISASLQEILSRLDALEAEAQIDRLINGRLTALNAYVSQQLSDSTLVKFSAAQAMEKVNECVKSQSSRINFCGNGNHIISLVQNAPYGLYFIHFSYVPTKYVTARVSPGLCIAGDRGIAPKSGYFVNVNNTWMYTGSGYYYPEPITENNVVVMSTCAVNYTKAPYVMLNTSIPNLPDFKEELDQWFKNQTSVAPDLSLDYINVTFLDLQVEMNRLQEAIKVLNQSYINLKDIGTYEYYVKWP
The assay can be described thus: multiplex bead assay.

In assay [4] the target is SARS-CoV-2 S on pseudovirions (Wuhan Hu-1 / IL1/2020, last 18 amino acids removed) (SARS-CoV-2, UniProt P0DTC2 14-1273). The assay can be described thus: cell-based or functional assay.

B1: COV_1184 (antibody, V domains shown)
VH: QVQLQQWGAGLLKPSETLSLTCAVYGGSFSGYYWSWIRQPPGKGLEWIGEINHSGNTTYNPSLKSRVTISVDTSKNQFSLKLSSVTAADTAVYYCARGLVITYYYDSSGKPFDPWGQGTLVTVSS
VL: not shown
notes: human IgG1
Consider B1, for which the binding result in assay [1], in assay [2] and in assay [3] was “no binding” in each case.

B2: COV_2125 (antibody, V domains shown)
VH: EVQLVESGGGVVQPGRSLRLSCAASGFTFSSYGMHWVRQAPGKGLEWVAVISYDGSNKYYADSVKGRFTISRDNSKNTLSLQMNSLRPEDTAVYYCAKDSPYYYDSSGYYPGYFQDWGQGSLVTVSS
VL: DIQMTQSPSSLSASIGDRVTITCRASQTISDYLNWYQQKPGKAPNLLIYAASTLQSGVPSRFSGSGSGTDFTLTISSLQPEDFATYYCQQSYITPRTFGQGTKVEIK
notes: human IgG1
For B2, the binding result in assay [1], in assay [2] and in assay [3] was “no binding” in each case.

B3: COV_3069 (antibody, V domains shown)
VH: EVQLVESGGGLVKPGGSLRLSCAASGFTFGSYTMNWVRQAPGKGLEWVSSIDTTSSSIYYADSLKGRFAISRDSAKNSLYLQMNRLRAEDTAVYYCARGNGHSYDSSGYHYGMYFDYWGQGTLVTVSS
VL: DIQMTQSPSTLSASVGDRVTITCRASQSISRWLAWYQQKPGKAPKLLIYEVSSLENGVPSRFSGSRSGTEFTLTISSLQPDDFAIYYCQQYNTYSRTFGQGTKVEIKR
notes: human IgG1
In the case of B3, the binding result in assay [1], in assay [2] and in assay [3] was “no binding” throughout.

B4: COV_3129 (antibody, V domains shown)
VH: QVQLQQWGAGLLKPSDTLSLTCAANGGGSFSGYYLGYIRQSPGKGLEWIGEINHNGGTNYNPSLKSRVTISGDTSKNQFSLKLSSVTAADTAIYYCARSRDSSLGDAVWYEYWGQGTLITVSS
VL: EIVLTQSPATLSLSPGERATLSCRASQSVDIYLAWYQQRPGQAPRLLISDASKRATGVPARFSGSGSGTDFTLTINSLEPEDFAIYYCQQRRDWPINFGQGTRLEIKR
notes: human IgG1
On to B4, for which the binding result in assay [1], in assay [2] and in assay [3] was “no binding” each time.

B5: COV_1145 (antibody, V domains shown)
VH: QVQLVESGGGVVQPGRSLRLSCAASGFTFSSYGMHWVRQAPGKGLEWVAVIWYDGSNKYYADSVKGRFTISRDNSKNTLYLQMNSLRVEDTAVYYCAREGQLGATGLDCWGQGTLVSVSS
VL: SYELTQPPSVSVSPGQTARITCSGDALPKKYAYWYQQKSGQAPVLVIYEDSKRPSGIPERFSGSSSGTMATLTISGAQVEDEADYYCYSTDNSGNHWVFGGGTKLTVLG
notes: human IgG1
B5: the binding result in assay [1], in assay [2] and in assay [3] was “no binding” each time.

B6: COV_2215 (antibody, V domains shown)
VH: EVQLVESGGGLVKPGGSLRLSCAASGFTFSHAWMSWVRQAPGKGLEWVGRIKSKTDGGTADYAAPVKGRFTISRDDSKNTLYLQMNSLKTEDTAVYYCATIRYYYDSSAYLNDAFDIWGQGTMVTVSS
VL: SYELTQPPSVSVSPGQTARITCSGDALPKKYAYWYQQKSGQAPVLVIYEDSKRPSGIPERFSGSSSGTMATLTISGAQVEDEADYYCYSTDSSGNHRVFAGGTKLTVLG
notes: human IgG1
Turning to B6, the binding result in assay [1], in assay [2] and in assay [3] was “no binding” each time.

B7: COV_2205 (antibody, V domains shown)
VH: EVQLVESGGGLVKPGGSLRLSCAASGFTFSDYYMIWIRQAPGEGLEWVSYISSRSSYTNYADSVKGRFTISRDNARNSLYLQMNSLRAEDTAVYYCARGQHDLLTGYYSWAYFDYWGQGTLVTVSS
VL: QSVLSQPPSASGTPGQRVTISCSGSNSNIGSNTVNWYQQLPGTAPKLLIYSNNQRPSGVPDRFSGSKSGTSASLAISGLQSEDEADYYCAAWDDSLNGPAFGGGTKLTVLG
notes: human IgG1
Turning to B7, the binding result in assay [1], in assay [2] and in assay [3] was “no binding” in each case.

B8: COV_1177 (antibody, V domains shown)
VH: QVQLVESGGGVVQPGRSLRLSCAASGFTFSSYGMHWVRQAPGKGLEWVAVIWYDGSNKYYADSVKGRFTISRDNSKNTLYLQMNSLRAEDTAVYYCARDPLGAVAGYFDYWGQGTLVTVSS
VL: SYVLTQPPSVSVAPGQTARITCGGNNIGSKSVHWYQQKPGQAPVLVVYDDSDRPSGIPERFSGSNSGNTATLTISRVEAGDEADYYCQVWDSSSDHHWVFGGGTKLTVLG
notes: human IgG1
As for B8, the binding result in assay [1], in assay [2] and in assay [3] was “no binding” throughout.

B9: COV_2169 (antibody, V domains shown)
VH: EVQLVESGGGVVQPGRSLRLSCAASGFTFSRYAMHWVRQAPGKGLEWVAVISYEGSNKYYADSVKGRFTISRNNSNNTLSLQMNSLRPDDTAVYYCVRSGGHYFDAFDLWGQGTMVTVSS
VL: EIVLTQSPGTLSLSPGERATLSCRASQSVSRNYVAWYQQKPGQAPRLLIYGASSRATGIPDRFSGSGSGTDFTLTISRLEPEDFALYYCQQYGSSYTFGQGTKLEIKR
notes: human IgG1
Take B9: the binding result in assay [1], in assay [2] and in assay [3] was “no binding” in each case.

B10: COV_1201 (antibody, V domains shown)
VH: QVQLVQSGAEVKKPGASMKVSCKASGYTFTGYYIHWVRQAPGQGLEWMGRINPNSGGTNYAQKFQGRVTMTRDTSISTAYMELSRLRSDDTAVYYCAREYYYVPYGMDVWGQGTTVTVSS
VL: QSALTQPASVSGSPGQSITISCTGTSSDVGGYNFVSWYQHHPGKAPKLMIYEVSNRPSGVSNRFSGSKSGNTASLTISGLQAEDEADYYCSSYTSSSTYVFGTGTKVTVL
notes: human IgG1
For B10, the “Mean IC50, pSV neutralization” value in assay [4] is 0.09 µg/ml. In addition, the “Mean IC80, pSV neutralization” value in assay [4] amounted to 0.3 µg/ml. In addition, the binding result in assay [1], in assay [2] and in assay [3] was “no binding” in each case.
